The DeepSol protein solubility set

Test: soluble on expression in E. coli; label from the status in PepcDB or PDB records

Row | Sequence | soluble on expression in E. coli
1 | MEDLDALWERYREAVRAGGNPQALYQEMVWPALLALWREKPRVYPFPQAFAVSVHTLGTSPEATALAILGAGAERVYVLHTPESARFLPRLRQDTGKDLYPVEIGKSDVEAIYREVKRLLEKHPEVPVALDLTSGTKAMSAGLAAAGFFFQRFYPKVRVVYVDNEDYDPELRRPRAGTEKLRILPNPHEALAEVDALFAKELYGKGEFGQAAAYFRGMVGRTGNQAYALYALLAEMYRAWRALDFGEALKAGRKLLGQLSQNVWLNHPLNARREALEAQVALLEAVDRFLKARDFALKEGVYGLARTLLHLAQEAKEEAAVLAALYAYRALELLLQERLALLGRRAEAPGLSPEEAEALRKALAELLGVLPEEVRLPAKLGLLDLLAFLRLKGDEALGRLSLAELRGLAGALKGRNSALLVHGFDVPSPKAVEGIARLAQGLLQDLEARTALGPLSPEPVPLGF | soluble
2 | PFKESQARGLLQDNMANSYNGGDFEDGLLNLSKEVFPTDKYLYQDGQFLDKKTINAYLNPKYTKREIDKMSEKDKKDKKANENLGLNPSHEGETNPEKIAEKSPAYLSNILEQDFYGGGDTKGKNIKGMTIGLAMNSVYYYKKEKDGPTFSKKLDDSEVKKQGKQMASEILSRLRENDDLKDIPIHFAIYKQSSEDSITPGEFITQATAEKSQTKLNEWHNINEKSALLPSSTAADYDENLNNNFKQFNDNLQSYFSNFTQAVGKVKFVDKKPQRLVVDLPIDYYGQAETIGITQYVTEQANKYFDKIDNYEIRIKDGNQPRALISKTKDDKEPQV | not soluble
3 | GAMEAIYAYEAQGDDEISIDPGDIITVIRGDDGSGWTYGECDGLKGLFPTSYCK | soluble
4 | MDGTIKEALSVVSDDQSLFDSAYGAAAHLPKADMTASGSPDYGQPHKINPLPPQQEWINQPVRVNVKREYDHMNGSRESPVDCSVSKCSKLVGGGESNPMNYNSYMDEKNGPPPPNMTTNERRVIVPADPTLWTQEHVRQWLEWAIKEYSLMEIDTSFFQNMDGKELCKMNKEDFLRATTLYNTEVLLSHLSYLRESSLLAYNTTSHTDQSSRLSVKEDPSYDSVRRGAWGNNMNSGLNKSPPLGGAQTISKNTEQRPQPDPYQILGPTSSRLANPGSGQIQLWQFLLELLSDSANASCITWEGTNGEFKMTDPDEVARRWGERKSKPNMNYDKLSRALRYYYDKNIMTKVHGKRYAYKFDFHGIAQALQPHPTESSMYKYPSDISYMPSYHAHQQKVNFVPPHPSSMPVTSSSFFGAASQYWTSPTGGIYPNPNVPRHPNTHVPSHLGSYY | soluble
5 | MSDTPKYTQDQVIAIKNRILEALETVIDPELGIDVVNLGLIYEIRFNDNGYTEIDMTLTTMGCPLADLLTDYIHDALQDVPEVTKTEVKLVWYPAWTVDKMSRYARIALGIR | not soluble
6 | MGSDKIHHHHHHMINVLILGAASQISRFLIPDLLADKTVYLTLFARQAPQRLGQYAGESRVTLVDGDWNQEADIEQVMSNQDIVFLASSSLVGNQNVVTVMKHTGVQRLIVAGGLGIDDEVAGKFGNWNTRMMGDYTPYKQAAKVILDSGLNTTYLRMTWLYDENGNEKYQIVPEGQPLRGTQVTRQAVAKLVTAIVRQPSLYQYANIGVVEPGTEWDKPSFY | not soluble
7 | MGSDKIHHHHHHMKVVAVGGGTGLSTLLKGLKNIDSFEITAVVSVTDEGGSSGKLRKELNVPPPGDVRNNIVALAKDEDLLAKLMSYRFSEGSFKGHSLGNLIIAALTKIEGSFSEAIRILERVLAIKGRVLPVSEDHARLVARFEDGEEVIGETNIVRKGGKIVEVRLDRPIDALPEVLEAIERADIIIFGPGSLYTSIITNVLVNGVKDAIKKSKAKKIYVCNLMTQPGETTGYRVSDHVKELERYLEQSVDFVLVNTRKPSEEVLERYRKEGSDFVEIDAENIQNTILAEPFLVEIVDPSDGQRKIRHDSVKLADVIERISRW | not soluble
8 | MTEKTIEFEGIEPVIIFGPYDSYLKKVREAFPDIRINARGAKITIGGDEPDLTAIEKIFREIIFLADQHGEVLENDVNALVSLALSPVSHPSAALSGDKDVIVETKDYVVKAKTDGQRRMVAEAAGNDIVFAIGPAGTGKTYTAVAIAVAAWKAKKIKRIVLARPAVEAGESLGFLPGDLAQKIDPYLRPLYDALQDMLTAEKLKFLTERRVIEIVPLAYMRGRTLNNSFIILDEAQNASSKQMMMCLTRLGVNSKAIITGDVTQVDLPKEMESGLMNAQKILKGIKGISFVFLDKSDVVRHRLVKDIINAYEHHEEGLRKGAPKEAEL | not soluble
9 | MTTQNELLNRIAELETKVAFQDNVIEELNQVLIHHQFVLDKLQTQVRHFANKFKNIQSSNVASQAEETPPPHY | soluble
10 | MKTAIVTDSTAYLPKEVRERLGIRLIPLSVIFGNETYREEIDMTADEFFAKIKQHPTLPTTSQPSVGEFVDLFTAIREEGYEAVVSIHLSSGISGTYQGAVTAGTMVDGLRVYAYDSEISCMAQGFYAIEAAEMAQAGRSPEDIIARLDEMKQTLRAYFMVDDLAHLQRGGRLTGAQAFIGGLLQIKPLLRFENKVIVPFEKIRTRKKAIHRIEELFAEDAEKGVPLKAAIIHANQPDEAHRWRDELSARYPHVEFSISYFGPVIATHVGEGALGLTWYQP | soluble
11 | MAHHHHHHMPSLFDPLTIGDLTLANRIIMAPLTRARAGDTRTPNALMARYYAERASAGLIISEATSVTPQGVGYASTPGIWSPEQVDGWRLVTDAVHAAGGRIFLQLWHVGRVSDPVFLDGALPVAPSAIAPGGHVSLVRPQRPYVTPRALELDEIPGVVAAFRRGAENARAAGFDGVEVHGANGYLLDQFLQDSANRRTDAYGGSIENRARLLLEVVDAAIDVWSAARVGVHLAPRGDAHTMGDSDPAATFGHVARELGRRRIAFLFARESFGGDAIGQQLKAAFGGPFIVNENFTLDSAQAALDAGQADAVAWGKLFIANPDLPRRFKLNAPLNEPNAATFYAQGEVGYTDYPALESAA | soluble
12 | MANECRSLRNMETDGFQVVTEVVTHKLNHIPIFKGDFASLSPKVQRFVAEKAELMNPAGIYICDGSQKEYDDIVDKLVERGVLTPLKAYENNYLCRTDPRDVARVESKTWMVTKDKYDSVCHTPDGVRPIMGQWMSEEQFGVELDSRFPGCMAGRPMYVVPYSMGPIGGPLSKNGIELTDSPYVVLCMRTMTRMGTKVLEALGDNDFVRCIHSVGLPRPVKQKVINHWPCNPEKVMIAHRPKEREIWSFGSGYGGNSILGKKCFALRIACNIGRDEGWLAEHMLIMGVTNPEGEEKFIAAAFPSACGKTNLAMLTPTVPGWKVRVVGDDIAWMKFGADGRLYAINPEAGFFGVAPGTSHKTNAMAMESCRANTIFTNVAETADGEYFWEGLEKELKEAKGYTDEQLKHLEITNWLGERWHIGDEGKAAHPNSRFTAPAKQCPNIHPDWEAPQGVPIDAIVFGGRRPEGVPLVFESFSWEHGILVGALVKSETTAAAEFTGKNVMHDPMAMRPFMGYNYGKYLEHWIKLGKAPHKAPKIFHVNWFRETKDHKFLWPGFGDNIRVLDWILRRVAGGEEEIAIETAIGYVPKRGTINLDGLPRIDWNDLMSIPKDYWVEDVDESRHFLDTQVGSDLPQPIRDELDKLEKRVHAL | not soluble
13 | MGSDKIHHHHHHMEVDDVWDDTELIKMYDESLQEISKNETSAKITSRKFKGEDGKMYTWKVGGKCMAPYEENGEVTDYPATIDTIGGADNLEVGVTFIYYGGQAVVQMKDLWLNEEAIADAVKAENDLQKTKKTSTVNSVAHSNSKSTSSAPNTSMPFPSFAPPVPPNIIAMAPVNQKEAMNSMLMSWYMSGYHTGYYQALADQKNVQN | not soluble
14 | MIDNPTPKSSMTFKELYDEWLLVYEKEVQNSTYYKTTRAFEKHVLPVIGSTKLSDFTPMELQNFRNDLSEKLKFARKLFGMVRKVFNHAALLSYIQANPALPVTSQGIKKKVEELEHHHHHH | soluble
15 | MAHHHHHHMNSTDTKQSAGYFKEKATIGLSSFSGDEIVKAILKTTSHLLKAPKEKYMQKLVAASYGQYGSGLREGLPINEFIVRELEKRSHTHNWIVVLKTMVSFHRLMCDASDSMVETICYYRHVFRASNIKNLADTADGAGQAYFIAQYMTYLEERCVMQSALGKGRRVEIREFEEYLETLNAKSLQPVFEILLRLFEAVPAVEYREAVVNNFCTLEAYQLLVRDGKQLFQHLAKRVIFILDGFEDFSLPEKRRWFDLYRRYASAFASVKQYFDSMLCSSRVFLEPVPKLKPLPESLLTRLEGDIRASETAKEGLCTLESLGICSREDSRVDSKEEKIRPPRAPEPAVVNQSEAVTALTPAAPTVSLDDLFVPSQEPTKPVQPASCPASWTPAPLAATSFQQGSEQFQWETGVPQNWGSGGHITLQAIATPPVPPPQHAFSGGAPPPAGEGALYPLVQSALKQPPPPVQFKKPADPLKDLYNSCHWQSN | not soluble
16 | MVGGDGATRREQSLCDSCYFAAFDLVDAPDTIEVMVCARCGAVHRGNRWVDIGADDYVDVAVAETTEALGVHLEAEDVDWEVRPEKLDDNTVRMHATFTGVVRDTHRTEQVAVTVKVSRQTCQRCGRIAGESYASTVQVRAVGRDPTSEETDRAAELAHRIVADMEATGDREAFVTEIGDAESGTDIKLSTTKIGLKLARKLVEEFGGDFEDHETLITEDDDGNEVYRVTYAVRLPEFVPGDVVDIAADDGGPVLVQSNHGNLKGVRVTTGEPYEASFEDGDSPDARKLGAVADATEATVVTVEDDAAIQILDPDTYEAQTVARPDYVDPDASTVPALKSRAGLHVLPDALEHHHHHH | not soluble
17 | LKRYIAGLACAATAVLSAPALASTAHAQAADPISALKSQFSSGRGVNFVDTTKTQGPQGNMVLAKRTGALQFGPSGISASDQTAQLRFKASDFEDLTEGEEDEDFSKFFRGLAKPERVVRIKNTTYVSGGVMGEFMPADKTWVRFPDGLLGFTGAMSQFVNVAEPATLKALLAHATKHGGTYSGKITFGELNKVSPWFRASLGAPTAKTAKIVVSWKLFLGSDRLAKRLVTTYSTAGSAESTVTVDTRYTGWGSKVTVKAPPADQVADLKDLEEGAETATSIPLLGN | soluble
18 | MGSDKIHHHHHHMFKIDRLRFGTAGIPISTPKPSTIAGIERVRELGLDAMELEFVRGINIKPELAKKIKYVAEKNDIVLTAHAPYYINLNAKEKEKVEASKRRIIQSAERLYEAGGWSVVFHAGYYLKQPKESVYQKILSALKEIQKELMDKGIKVWLRPELTGKPTQFGDLKELVKLSQELELVLPAIDFAHAHARNKGKCNTEEEWREMLALIENELGREALDNMHIHISGIEYGEKGEKRHLNLEESDLKWEDLLKVLKEFRVKGVIISESPNIEGDAILMKKKWEELKI | not soluble
19 | SDERHKTDIAPISDKVLDAWEKVKFYQYKFKDAVDEKGEEARYHFGVIAQQIVKVFEDEGLSAFDYGLVGYDEWEATEDEYDSEGNLVEKGREAGNIYSIRPTECQWLEMACMRRKLERLSLEHHHHHH | soluble
20 | MGVSRVLHVEGGTPLKGELRVYPAKNAALPILAASLLTPEPITLVEVPRLRDVEVMLELLAHLGTQYAWEGRTLHLQTPEIKSTHAPYELVGQMRASFIVWGALLARAGEGHVSMPGGCAFGFRPVDQHIKALEALGAEVWEEDGTFHARRTRPLSGRVVFDLPTVGGTEQAMLAVALGGEATLVQAAVEPEVVDLGHFLALLGAEVEGLGSPIVRIKGAPRLKGGTYRIIPDRIEAGTYLLAAAATRGSLTLEGVRPDHLDALLDKLWRSGHRLEVGEDWIRFRATPDPAPFHVEAREYPGFPTDLQPIATAYLATVPGQSTVVDRIYPDRFTHVGELARMGAELYLRDRILTVQGRRLHGAQVKALDIRAGGALVVAALSAEGASEIEGVYFLERGYEHLTERLQALGARVHLRESPVALAAD | soluble
21 | MKTKVICLVRVSTQDQDYQRQISDLTKYSQARDFVIVDFISEKVSGTKRNEERNGIQELLKRARKKEFQKVIVQEISRLGRNPFQVQRVIEELAELSISVVVQNMNLETLDEGGNRNGFIDLMLSTAVHFSSIERSWIVNRIRSGQKNSKKKIGRPFNTFESKEAVLKKYAAVVRDLKSGISIRKVAKLNDLSTPTIQRVKKLMQEL | not soluble
